Experimental findings from PMC3509150 (2012) are described below.

The target of this experiment is HIV-1 capsid protein (CA), full-length (HIV-1, UniProt P12493 133-363).

B1: CANTDcb1 nanobody with C-terminal 6xHis-tag, purified (VHH)
VHH: QVQLVESGGGLVQAGGSLRLSCAASGYFSSYAMGWFRQAPGKEREFVAAISWIESTTDYADSVKGRFTISRDNAKKTLHLQMNSLKPEDTAVYYCAACDIPFGQAFCALYDYWGQGTQVTVSS
Take B1: the koff worked out at 0.00012 s⁻¹.
